Experiments:
Format in all cases: biochemical
[1] = Plate assay of crude cell lysate, second round of active site optimization; conditions: Combinatorial Mutation Results; 4 colonies/Kunkel assayed
Protocol: Since it was unreasonable to prepare the 176 enzyme variants in large scale, a plate assay was developed in which colonies directly from a Kunkel mutagenesis (8) reaction could be screened. Kunkel mutagenesis reactions were transformed directly into BL21(DE3)™ (Invitrogen) in order to generate each of the desired mutants. Four colonies from each plated reaction was picked and grown at 37° C. in 0.5 mL of LB-Kanamycin overnight. […]. This culture was grown for 2-3 hours at 37° C., after which 50 μL of 10 mM IPTG was added to each well (0.5 mM Final) in order to induce expression. The cells were then grown for 24 hours at 18° C., harvested, and stored at −20° C. until ready for assaying. To assay, crude cell lysate was prepared by resuspending the cells in 500 uL of PBS and lysing through 3 freeze/thaw cycles (15 minutes at −80° C., 40 minutes at 25° C.), followed by centrifugation at 4000 rpm for 30 minutes. […] Samples from each reaction were then quenched and product detected using a liquid chromatography-tandem mass spectroscopy.
To help remove some of this noise, samples showing WT activity were discarded if at least 2 of the other colonies picked from that Kunkel reaction did show an effect on activity (either greater or less than WT). […] The relative effect of each mutation was calculated. […]

[2] = Stereospecificity, chiral column LC-MSMS
Protocol: The transition states which lead to the four possible ortho-stereoisomers are shown above the reaction chromatograms. Background reaction: 2 mM diene and 70 mM dieneophile in a PBS solution for 24 hours at 298 K. DA—20—10 reaction: 50 μM protein, 0.5 mM diene, and 10 mM dieneophile in a PBS solution for 48 hours at 298K. The four stereoisomers were separated using liquid chromatography (11), and samples injected onto a Daicel AD-H column.
A liquid chromatography-tandem mass spectroscopy with a chiral column was used to detect each of the four experimentally observed stereoismers. The chiral column used in this work was the same as in (10), so it was predicted that the product peaks would come out in the same order. To validate that the endo and exo products came out as expected each was synthesized, and run either separately or together to identify the endo and exo peaks. The peaks observed come out in the same order and same time as reported in Cannizzaro et al. (10).
In order to quantify the stereospecificity of DA—20—10, a reaction with 2 mM diene, 70 mM dieneophile, PBS, pH 7.4, in the presence or absence of 80 μM protein was run for 24 hr at 298K. […] The reactions were shaken for 5 minutes, centrifuged for 5 minutes, after which the organic layer was removed and analyzed with a LC-MSMS assay. […]

[3] = Substrate specificity, LC-MS of product peak area formed per hour; conditions: 0.2 mM diene, 10 mM dienophile, 60 μM protein, PBS, 298K
Protocol: FIG. 19 illustrates the substrate specificity of DA—20—10 and a single mutant of DA—20—10, H287N. Reactions were carried out with 0.2 mM diene 1 (FIG. 1), and 10 mM of one of the six dienophiles depicted in PBS at 298K in the absence or presence of 60 μM DA—20—10 or DA—20—10_H287N. The depicted values in the figure are the mean (bars) and standard deviation (error bars) of four independent measurements of the product peak area (arbitrary units) formed per hour, determined using a liquid chromatography-mass spectroscopy assay.
To experimentally determine substrate specificities each dienophile from FIG. 19 was either purchased or synthesized. The dienophiles were assayed in the presence or absence of 60 μM DA—20—10 or the H287N mutant over 30 hours with 10 mM dienophile and 0.2 mM diene at 298K in a PBS solution. A sample of the reaction was taken at four different time points, quenched, and filtered as previously described. To detect product a liquid chromatography-mass spectroscopy assay was used. […] The average area of each detected peak formed per hour was used to determine the relative amount of product formed with and without enzyme.
Besides stereoselectivity, the level of control over a chemical reaction by a designed enzyme is reflected by its substrate specificity. […] The activity against each of the substrates was measured using a liquid-chromatography mass spectroscopy assay.

B1: DA_20_10: DA_20_04 with A272N, Q149R, A173C (protein)
chain: MEIPVIEPLFTKVTEDIPGATGPVFDKNGDFYIVAPYVEVNGKPAGEILRIDLKTGKKTVICKPEVNGYGGIPIGCQCDRDANQLFVADMRLGLLVVQTDGTFEEIAKKDSEGRRMQGCAYCAFDYEGNLWITAPAGEVAPADFTISLREKFGSIYCFTTDGQMIQVDTAFQCPAGIAVRHMNDGRPYQLIVAEQPTKKLWSYDIKGPAKIENKKVWGHIPGTHKGGAAGMDFDEDNNLLVANWGSSHIEVFGPDGGQPKMRIRCPFEKPANLHFKPQTKTIFVTEHENNAVWKFEWQRNGKKQYCETLKFGIFGSLEHHHHHH
modifications: Enzyme catalyst for Diels-Alder reaction
notes: DA_20_04 with A272N, Q149R, A173C
Q: Which results are given for B1?
A: Relative Effect on Activity [1]: 7.96; share of the expected 3R,4S product [2]: > 97%; stereospecificity ([2]; 2 mM diene, 70 mM dienophile, PBS, pH 7.4, 80 μM protein, 24 hr, 298K): greater than 97 % ee; substrate specificity (in words) [3]: highly favor the substrate for which it was designed

Reference: US8688427B2, “Enzyme catalysts for diels-alder reactions” (University of Washington, priority 2008, dated 2014)
